# Experimental data from IntAct's records for PubMed 20543827.
# B1: Retinoic acid receptor alpha (Homo sapiens), P10276 (parent)
# chain: MASNSSSCPTPGGGHLNGYPVPPYAFFFPPMLGGLSPPGALTTLQHQLPVSGYSTPSPATIETQSSSSEEIVPSPPSPPPLPRIYKPCFVCQDKSSGYHYGVSACEGCKGFFRRSIQKNMVYTCHRDKNCIINKVTRNRCQYCRLQKCFEVGMSKESVRNDRNKKKKEVPKPECSESYTLTPEVGELIEKVRKAHQETFPALCQLGKYTTNNSSEQRVSLDIDLWDKFSELSTKCIIKTVEFAKQLPGFTTLTIADQITLLKAACLDILILRICTRYTPEQDTMTFSDGLTLNRTQMHNAGFGPLTDLVFAFANQLLPLEMDDAETGLLSAICLICGDRQDLEQPDRVDMLQEPLLEALKVYVRKRRPSRPHMFPKMLMKITDLRSISAKGAERVITLKMEIPGSMPPLIQEMLENSEGLDTLSGQPGGGGRDGGGLAPPPGSCSPSLSPSSNRSSPATHSP
# Variants of: B1
# Conditions: with ncor1_human NCOR1, O75376
row,Variant,effect of a mutation on the interaction
1,MASNSSSCPTPGGGHLNGYPVPPYAFFFPPMLGGLSPPGALTTLQHQLPVSGYSTPSPATIETQSSSSEEIVPSPPSPPPLPRIYKPCFVCQDKSSGYHYGVSACEGCKGFFRRSIQKNMVYTCHRDKNCIINKVTRNRCQYCRLQKCFEVGMSKESVRNDRNKKKKEVPKPECSESYTLTPEVGELIEKVRKAHQETFPALCQLGKYTTNNSSEQRVSLDIDLWDKFSELSTKCIIKTVEFAKQLPGFTTLTIADQITLLKAACLDILILRICTRYTPEQDTMTFSDGLTLNRTQMHNAGFGPLTDLVFAFANQLLPLEMDDAETGLLSAICLICGDRQDLEQPDRVDMLQEPLLEALKVYVRKRRPSRPHMFPKMLMKITDLRSISAKGAERVETLKMEIPGSMPPLIQEMLENSEGLDTLSGQPGGGGRDGGGLAPPPGSCSPSLSPSSNRSSPATHSP [I396E],decreasing interaction

# Variants of: B1
# Conditions: with ncor1_mouse Ncor1, Q60974
# Sequence of ncor1_mouse Ncor1, Q60974 (Q60974 whole entry): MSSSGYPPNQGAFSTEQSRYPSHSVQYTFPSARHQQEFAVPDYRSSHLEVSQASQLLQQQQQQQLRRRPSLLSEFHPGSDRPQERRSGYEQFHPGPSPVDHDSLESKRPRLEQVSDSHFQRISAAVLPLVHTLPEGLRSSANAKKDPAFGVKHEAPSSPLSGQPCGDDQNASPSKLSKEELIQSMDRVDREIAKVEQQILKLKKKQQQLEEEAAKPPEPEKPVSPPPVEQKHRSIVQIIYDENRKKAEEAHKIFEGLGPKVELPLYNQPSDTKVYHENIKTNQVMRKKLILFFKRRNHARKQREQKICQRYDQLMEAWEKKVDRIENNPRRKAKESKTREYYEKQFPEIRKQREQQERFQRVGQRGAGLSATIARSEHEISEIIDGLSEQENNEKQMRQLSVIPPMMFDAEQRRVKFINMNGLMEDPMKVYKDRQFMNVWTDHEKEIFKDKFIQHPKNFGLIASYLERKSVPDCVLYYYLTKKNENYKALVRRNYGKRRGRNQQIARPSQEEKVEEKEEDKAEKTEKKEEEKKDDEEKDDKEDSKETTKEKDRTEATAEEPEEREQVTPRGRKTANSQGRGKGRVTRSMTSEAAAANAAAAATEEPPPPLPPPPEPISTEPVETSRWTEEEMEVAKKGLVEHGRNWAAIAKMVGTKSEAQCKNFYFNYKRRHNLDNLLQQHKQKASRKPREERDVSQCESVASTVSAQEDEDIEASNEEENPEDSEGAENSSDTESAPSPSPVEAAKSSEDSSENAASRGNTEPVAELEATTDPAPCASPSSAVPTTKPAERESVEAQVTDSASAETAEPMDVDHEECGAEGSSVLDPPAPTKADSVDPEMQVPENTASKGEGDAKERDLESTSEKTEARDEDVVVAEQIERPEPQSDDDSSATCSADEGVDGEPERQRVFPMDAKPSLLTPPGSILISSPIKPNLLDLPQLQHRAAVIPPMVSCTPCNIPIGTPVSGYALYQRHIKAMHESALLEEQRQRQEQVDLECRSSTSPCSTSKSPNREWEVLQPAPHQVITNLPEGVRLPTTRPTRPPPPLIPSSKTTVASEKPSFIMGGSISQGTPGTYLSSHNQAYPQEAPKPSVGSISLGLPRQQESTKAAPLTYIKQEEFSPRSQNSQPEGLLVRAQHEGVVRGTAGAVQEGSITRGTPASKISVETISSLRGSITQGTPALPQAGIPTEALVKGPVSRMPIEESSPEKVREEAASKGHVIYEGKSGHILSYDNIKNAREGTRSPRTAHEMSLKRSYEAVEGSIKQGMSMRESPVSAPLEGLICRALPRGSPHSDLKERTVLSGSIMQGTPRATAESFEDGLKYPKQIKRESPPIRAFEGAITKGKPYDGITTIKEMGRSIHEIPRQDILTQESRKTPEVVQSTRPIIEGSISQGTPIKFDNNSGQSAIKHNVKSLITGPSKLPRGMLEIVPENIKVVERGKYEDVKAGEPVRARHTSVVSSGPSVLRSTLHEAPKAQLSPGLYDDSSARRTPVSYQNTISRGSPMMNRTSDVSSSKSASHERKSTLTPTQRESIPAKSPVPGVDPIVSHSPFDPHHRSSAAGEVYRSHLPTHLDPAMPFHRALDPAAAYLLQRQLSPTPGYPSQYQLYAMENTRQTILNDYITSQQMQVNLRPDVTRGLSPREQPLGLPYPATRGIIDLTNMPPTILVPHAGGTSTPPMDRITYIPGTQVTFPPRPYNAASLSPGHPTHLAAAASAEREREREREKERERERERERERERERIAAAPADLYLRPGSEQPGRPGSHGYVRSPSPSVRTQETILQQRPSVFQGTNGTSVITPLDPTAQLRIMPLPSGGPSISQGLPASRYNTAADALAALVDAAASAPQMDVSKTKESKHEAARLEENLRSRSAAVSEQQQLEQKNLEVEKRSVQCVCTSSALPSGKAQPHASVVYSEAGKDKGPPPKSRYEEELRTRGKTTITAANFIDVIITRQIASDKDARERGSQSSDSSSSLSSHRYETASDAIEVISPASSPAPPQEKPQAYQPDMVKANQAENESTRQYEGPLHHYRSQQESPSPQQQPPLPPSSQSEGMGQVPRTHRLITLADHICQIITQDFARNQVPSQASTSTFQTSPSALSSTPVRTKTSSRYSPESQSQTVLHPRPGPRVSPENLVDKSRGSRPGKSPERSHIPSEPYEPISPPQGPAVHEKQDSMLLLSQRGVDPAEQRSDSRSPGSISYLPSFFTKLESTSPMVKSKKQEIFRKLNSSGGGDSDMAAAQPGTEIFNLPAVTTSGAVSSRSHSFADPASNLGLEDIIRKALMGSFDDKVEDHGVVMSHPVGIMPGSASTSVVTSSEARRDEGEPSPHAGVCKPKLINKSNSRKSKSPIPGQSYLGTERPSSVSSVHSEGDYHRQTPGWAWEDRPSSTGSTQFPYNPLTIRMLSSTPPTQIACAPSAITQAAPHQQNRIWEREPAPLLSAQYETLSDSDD
row,Variant,effect of a mutation on the interaction
1,MASNSSSCPTPGGGHLNGYPVPPYAFFFPPMLGGLSPPGALTTLQHQLPVSGYSTPSPATIETQSSSSEEIVPSPPSPPPLPRIYKPCFVCQDKSSGYHYGVSACEGCKGFFRRSIQKNMVYTCHRDKNCIINKVTRNRCQYCRLQKCFEVGMSKESVRNDRNKKKKEVPKPECSESYTLTPEVGELIEKVRKAHQETFPALCQLGKYTTNNSSEQRVSLDIDLWDKFSELSTKCIIKTVEFAKQLPGFTTLTIADQITLLKAACLDILILRICTRYTPEQDTMTFSDGLTLNRTQMHNAGFGPLTDLVFAFANQLLPLEMDDAETGLLSAICLICGDRQDLEQPDRVDMLQEPLLEALKVYVRKRRPSRPHMFPKMLMKITDLRSISAKGAERVETLKMEIPGSMPPLIQEMLENSEGLDTLSGQPGGGGRDGGGLAPPPGSCSPSLSPSSNRSSPATHSP [I396E],disrupting interaction

# Variants of: B1
# Conditions: with ncor2_human NCOR2, Q9Y618
# Sequence of ncor2_human NCOR2, Q9Y618 (Q9Y618 whole entry): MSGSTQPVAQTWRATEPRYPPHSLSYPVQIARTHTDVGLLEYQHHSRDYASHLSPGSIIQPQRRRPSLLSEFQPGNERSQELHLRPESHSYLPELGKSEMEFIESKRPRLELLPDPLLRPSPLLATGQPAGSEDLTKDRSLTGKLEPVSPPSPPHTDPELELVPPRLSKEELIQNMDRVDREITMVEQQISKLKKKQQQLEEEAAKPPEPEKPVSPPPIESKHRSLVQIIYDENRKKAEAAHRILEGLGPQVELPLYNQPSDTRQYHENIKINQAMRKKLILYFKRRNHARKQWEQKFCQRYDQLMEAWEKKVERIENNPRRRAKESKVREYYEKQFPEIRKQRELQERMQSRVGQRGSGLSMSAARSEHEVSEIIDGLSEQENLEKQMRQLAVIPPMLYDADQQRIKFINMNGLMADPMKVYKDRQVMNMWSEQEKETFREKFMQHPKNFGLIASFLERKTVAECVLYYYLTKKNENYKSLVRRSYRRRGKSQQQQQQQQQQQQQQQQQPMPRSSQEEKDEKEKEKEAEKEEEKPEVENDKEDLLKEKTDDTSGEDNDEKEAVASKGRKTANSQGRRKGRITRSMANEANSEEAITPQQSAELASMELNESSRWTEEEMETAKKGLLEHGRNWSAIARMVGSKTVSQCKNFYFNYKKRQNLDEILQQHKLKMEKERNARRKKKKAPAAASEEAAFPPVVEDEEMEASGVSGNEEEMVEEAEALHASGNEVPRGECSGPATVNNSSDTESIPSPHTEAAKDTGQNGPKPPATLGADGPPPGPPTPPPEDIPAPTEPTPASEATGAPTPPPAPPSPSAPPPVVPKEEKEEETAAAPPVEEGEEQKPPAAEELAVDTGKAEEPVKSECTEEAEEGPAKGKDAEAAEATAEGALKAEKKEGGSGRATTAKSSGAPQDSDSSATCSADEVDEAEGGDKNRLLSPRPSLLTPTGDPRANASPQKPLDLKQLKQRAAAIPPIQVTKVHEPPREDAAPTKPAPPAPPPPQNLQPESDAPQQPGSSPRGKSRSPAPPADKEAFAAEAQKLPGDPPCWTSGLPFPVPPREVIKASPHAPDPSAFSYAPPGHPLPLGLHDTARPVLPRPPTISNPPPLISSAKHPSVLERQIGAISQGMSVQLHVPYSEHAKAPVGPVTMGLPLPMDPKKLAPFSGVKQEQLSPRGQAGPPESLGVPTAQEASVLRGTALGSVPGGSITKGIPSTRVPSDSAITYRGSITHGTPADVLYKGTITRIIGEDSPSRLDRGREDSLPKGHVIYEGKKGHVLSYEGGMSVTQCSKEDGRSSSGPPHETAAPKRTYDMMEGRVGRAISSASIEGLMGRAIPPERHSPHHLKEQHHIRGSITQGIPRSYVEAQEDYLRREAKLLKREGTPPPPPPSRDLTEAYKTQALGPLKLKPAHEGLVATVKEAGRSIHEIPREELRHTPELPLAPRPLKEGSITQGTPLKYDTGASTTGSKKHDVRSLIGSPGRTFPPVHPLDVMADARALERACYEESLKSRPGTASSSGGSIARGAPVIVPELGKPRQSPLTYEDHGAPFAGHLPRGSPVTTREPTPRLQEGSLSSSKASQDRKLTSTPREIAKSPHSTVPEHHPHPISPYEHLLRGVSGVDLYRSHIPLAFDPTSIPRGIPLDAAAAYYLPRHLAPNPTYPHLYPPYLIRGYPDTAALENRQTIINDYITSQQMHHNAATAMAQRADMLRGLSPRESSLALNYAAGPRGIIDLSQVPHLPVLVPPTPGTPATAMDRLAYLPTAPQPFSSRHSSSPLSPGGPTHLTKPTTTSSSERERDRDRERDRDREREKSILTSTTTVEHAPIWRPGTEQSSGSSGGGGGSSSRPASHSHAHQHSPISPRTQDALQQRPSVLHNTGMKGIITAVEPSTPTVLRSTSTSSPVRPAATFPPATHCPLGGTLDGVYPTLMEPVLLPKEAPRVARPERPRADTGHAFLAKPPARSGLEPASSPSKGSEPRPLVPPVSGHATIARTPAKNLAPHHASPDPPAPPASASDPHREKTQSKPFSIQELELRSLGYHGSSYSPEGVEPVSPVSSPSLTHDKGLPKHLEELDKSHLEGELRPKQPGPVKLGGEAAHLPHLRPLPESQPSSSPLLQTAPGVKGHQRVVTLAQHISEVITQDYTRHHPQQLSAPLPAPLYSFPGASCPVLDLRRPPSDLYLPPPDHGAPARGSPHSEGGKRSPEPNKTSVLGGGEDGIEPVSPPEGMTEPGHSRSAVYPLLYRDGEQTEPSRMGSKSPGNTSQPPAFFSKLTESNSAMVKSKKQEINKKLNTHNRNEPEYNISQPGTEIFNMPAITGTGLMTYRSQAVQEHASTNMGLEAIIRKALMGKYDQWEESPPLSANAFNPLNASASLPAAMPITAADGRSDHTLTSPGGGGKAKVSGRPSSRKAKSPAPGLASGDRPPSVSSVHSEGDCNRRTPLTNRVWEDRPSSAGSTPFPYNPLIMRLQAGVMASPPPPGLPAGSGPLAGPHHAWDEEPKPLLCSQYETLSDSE
row,Variant,effect of a mutation on the interaction
1,MASNSSSCPTPGGGHLNGYPVPPYAFFFPPMLGGLSPPGALTTLQHQLPVSGYSTPSPATIETQSSSSEEIVPSPPSPPPLPRIYKPCFVCQDKSSGYHYGVSACEGCKGFFRRSIQKNMVYTCHRDKNCIINKVTRNRCQYCRLQKCFEVGMSKESVRNDRNKKKKEVPKPECSESYTLTPEVGELIEKVRKAHQETFPALCQLGKYTTNNSSEQRVSLDIDLWDKFSELSTKCIIKTVEFAKQLPGFTTLTIADQITLLKAACLDILILRICTRYTPEQDTMTFSDGLTLNRTQMHNAGFGPLTDLVFAFANQLLPLEMDDAETGLLSAICLICGDRQDLEQPDRVDMLQEPLLEALKVYVRKRRPSRPHMFPKMLMKITDLRSISAKGAERVETLKMEIPGSMPPLIQEMLENSEGLDTLSGQPGGGGRDGGGLAPPPGSCSPSLSPSSNRSSPATHSP [I396E],disrupting interaction

# Variants of: B1
# Conditions: with ncor2_human NCOR2, Q9Y618
# Remark: another data set of the same source
row,Variant,effect of a mutation on the interaction
1,MASNSSSCPTPGGGHLNGYPVPPYAFFFPPMLGGLSPPGALTTLQHQLPVSGYSTPSPATIETQSSSSEEIVPSPPSPPPLPRIYKPCFVCQDKSSGYHYGVSACEGCKGFFRRSIQKNMVYTCHRDKNCIINKVTRNRCQYCRLQKCFEVGMSKESVRNDRNKKKKEVPKPECSESYTLTPEVGELIEKVRKAHQETFPALCQLGKYTTNNSSEQRVSLDIDLWDKFSELSTKCIIKTVEFAKQLPGFTTLTIADQITLLKAACLDILILRICTRYTPEQDTMTFSDGLTLNRTQMHNAGFGPLTDLVFAFANQLLPLEMDDAETGLLSAICLICGDRQDLEQPDRVDMLQEPLLEALKVYVRKRRPSRPHMFPKMLMKITDLRSISAKGAERVETLKMEIPGSMPPLIQEMLENSEGLDTLSGQPGGGGRDGGGLAPPPGSCSPSLSPSSNRSSPATHSP [I396E],decreasing interaction
